Assay results published in publication PMC6712418.

Molecular target: Bovine plasma fibronectin (bovine) (UniProt P07589)
Assay: dynamic single-molecule force spectroscopy (AFM); fibronectin adsorbed on a gold surface; integrin or proteoglycan tethered by PEG to the AFM tip; PBS; trigger force 500 pN, no dwell; retraction speed varied; Bell-Evans fit of rupture force against ln(loading rate), fm = 10^7 s^-1 assumed

Chain of Bovine plasma fibronectin (bovine) (P07589 33-2478): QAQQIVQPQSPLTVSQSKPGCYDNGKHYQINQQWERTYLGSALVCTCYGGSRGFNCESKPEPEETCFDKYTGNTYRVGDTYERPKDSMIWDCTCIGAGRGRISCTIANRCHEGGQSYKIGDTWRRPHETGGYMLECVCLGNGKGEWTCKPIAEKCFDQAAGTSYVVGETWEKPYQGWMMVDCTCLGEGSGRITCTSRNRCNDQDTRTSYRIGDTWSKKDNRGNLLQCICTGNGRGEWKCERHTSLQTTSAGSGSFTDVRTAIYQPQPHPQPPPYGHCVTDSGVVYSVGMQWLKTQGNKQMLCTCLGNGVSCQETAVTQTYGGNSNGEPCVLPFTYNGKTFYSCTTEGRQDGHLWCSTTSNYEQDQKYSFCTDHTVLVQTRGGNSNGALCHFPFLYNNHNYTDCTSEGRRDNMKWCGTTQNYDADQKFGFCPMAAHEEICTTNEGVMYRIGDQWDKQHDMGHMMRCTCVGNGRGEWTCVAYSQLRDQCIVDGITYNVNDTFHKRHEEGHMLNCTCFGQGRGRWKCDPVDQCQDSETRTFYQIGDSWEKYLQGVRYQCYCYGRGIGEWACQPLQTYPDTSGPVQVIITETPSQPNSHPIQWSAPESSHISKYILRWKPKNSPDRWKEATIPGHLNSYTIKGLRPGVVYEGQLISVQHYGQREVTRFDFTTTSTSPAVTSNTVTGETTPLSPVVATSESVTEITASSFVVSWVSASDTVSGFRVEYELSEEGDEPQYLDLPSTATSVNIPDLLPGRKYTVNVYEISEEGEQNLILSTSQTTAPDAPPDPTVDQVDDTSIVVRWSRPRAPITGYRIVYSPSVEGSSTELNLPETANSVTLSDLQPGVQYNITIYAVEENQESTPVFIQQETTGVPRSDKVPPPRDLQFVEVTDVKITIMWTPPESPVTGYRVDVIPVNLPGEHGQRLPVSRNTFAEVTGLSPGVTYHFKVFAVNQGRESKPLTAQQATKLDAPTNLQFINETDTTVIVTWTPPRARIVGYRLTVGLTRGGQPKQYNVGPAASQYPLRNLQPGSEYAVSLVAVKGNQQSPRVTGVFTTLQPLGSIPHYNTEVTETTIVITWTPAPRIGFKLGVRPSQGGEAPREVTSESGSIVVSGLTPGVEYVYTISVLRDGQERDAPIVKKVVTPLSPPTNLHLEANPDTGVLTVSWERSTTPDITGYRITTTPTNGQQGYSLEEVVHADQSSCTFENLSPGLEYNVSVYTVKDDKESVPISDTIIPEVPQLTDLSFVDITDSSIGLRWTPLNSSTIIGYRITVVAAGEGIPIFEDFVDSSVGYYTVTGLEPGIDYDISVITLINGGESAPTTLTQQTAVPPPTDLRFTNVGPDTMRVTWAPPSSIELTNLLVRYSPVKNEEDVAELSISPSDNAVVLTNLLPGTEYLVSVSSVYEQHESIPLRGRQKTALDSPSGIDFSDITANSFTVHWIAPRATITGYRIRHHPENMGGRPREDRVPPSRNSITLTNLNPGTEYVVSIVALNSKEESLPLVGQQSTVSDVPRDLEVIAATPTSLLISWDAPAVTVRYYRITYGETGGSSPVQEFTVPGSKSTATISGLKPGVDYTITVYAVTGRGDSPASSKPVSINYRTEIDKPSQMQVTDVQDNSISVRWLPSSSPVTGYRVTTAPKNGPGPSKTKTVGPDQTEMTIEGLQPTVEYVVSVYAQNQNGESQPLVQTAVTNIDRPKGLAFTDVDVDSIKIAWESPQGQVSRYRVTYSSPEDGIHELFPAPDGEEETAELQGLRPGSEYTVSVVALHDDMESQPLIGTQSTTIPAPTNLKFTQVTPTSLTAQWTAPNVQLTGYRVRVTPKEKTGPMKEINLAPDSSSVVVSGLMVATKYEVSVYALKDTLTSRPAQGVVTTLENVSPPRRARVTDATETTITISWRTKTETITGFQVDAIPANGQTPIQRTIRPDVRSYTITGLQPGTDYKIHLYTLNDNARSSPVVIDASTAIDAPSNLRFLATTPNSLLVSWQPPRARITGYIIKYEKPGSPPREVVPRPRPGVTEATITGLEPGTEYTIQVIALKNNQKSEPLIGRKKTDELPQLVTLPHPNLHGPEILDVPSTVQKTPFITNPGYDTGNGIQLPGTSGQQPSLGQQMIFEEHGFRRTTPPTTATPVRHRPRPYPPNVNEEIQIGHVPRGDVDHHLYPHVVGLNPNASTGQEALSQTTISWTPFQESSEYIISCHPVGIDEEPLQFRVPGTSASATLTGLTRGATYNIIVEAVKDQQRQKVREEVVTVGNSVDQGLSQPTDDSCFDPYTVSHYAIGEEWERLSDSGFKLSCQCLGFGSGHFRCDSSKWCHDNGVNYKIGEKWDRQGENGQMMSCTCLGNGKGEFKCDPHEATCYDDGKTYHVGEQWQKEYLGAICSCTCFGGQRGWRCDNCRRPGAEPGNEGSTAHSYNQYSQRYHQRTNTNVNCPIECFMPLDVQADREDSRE

dissociation rate Kd, inner barrier: 70 s⁻¹
dissociation rate Kd, outer barrier: 0.18 s⁻¹
Substance: Recombinant human α5β1-integrin (from UniProt P08648 42-1049; P05556 21-728) (receptor)
